# Laboratory results taken from publication PMC8805024.
# Biological target: Acinetobacter baumannii AdeJ multidrug efflux pump (Acinetobacter baumannii AB0057)
# Experiment: cryo-EM structure; single-particle cryo-EM of 10 uM AdeJ-nanodisc (MSP 1E3D1, E. coli total lipid extract) incubated with 20 uM TP-6076 for 1 h; 2.91 Å; asymmetric trimer of access, binding and extrusion protomers
substance,measurement,value
Acinetobacter baumannii AdeJ multidrug efflux pump (natural protein),stoichiometry N,3
